The values that follow come from patent US20140147384A1 (NORDIC NANOVECTOR, published 2014).

The Kd is the equilibrium constant for the complex coming apart. A higher Kd goes with lower affinity.

In experiment [1] the target is CD20 on living lymphoma cells (Raji, Rael, Daudi) (UniProt P11836). Description: immunoreactive fraction, modified Lindmo method on lymphoma cells; 1 experiment.
Experiment [2] shares this target. In words: ^125I-labeled antibody on Raji cells, one-step curve fit of specific binding against time and concentration.
For experiment [3] the target is unchanged. Description: immunoreactive fraction, modified Lindmo method on lymphoma cells; mean ± SD of 6 experiments.
For experiment [4] the target is unchanged. Description: ^125I-labeled antibody on Rael cells, one-step curve fit of specific binding against time and concentration.
For experiment [5], the target named is T1, human CD37 on living lymphoma cells (Raji, Rael, Daudi) (human, UniProt P11049 1-281).
T1 construct: whole, on cells; Target of HH1 and of the three bought anti-CD37 antibodies on cell lines; also called CD37 antigen
T1 sequence (looked up): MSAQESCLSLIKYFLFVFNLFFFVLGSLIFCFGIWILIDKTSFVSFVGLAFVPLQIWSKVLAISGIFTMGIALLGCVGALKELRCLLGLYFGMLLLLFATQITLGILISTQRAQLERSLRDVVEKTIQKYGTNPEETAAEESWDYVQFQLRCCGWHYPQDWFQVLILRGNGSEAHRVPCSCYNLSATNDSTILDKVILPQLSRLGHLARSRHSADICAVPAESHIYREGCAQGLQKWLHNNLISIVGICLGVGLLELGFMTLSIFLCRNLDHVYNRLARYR
In words: ^125I-labeled antibody on Raji cells, one-step curve fit of specific binding against time and concentration. How it is done:
(§1) The association rate constant, kₐ, the equilibrium dissociation constant, Kd, and the mean number of binding sites, Bₘₐₓ, was determined by a one-step curve fitting method (Dahle et al. 2007). The binding parameters were measured for HH1 and rituximab and for three different lymphoma cell lines; Raji, Rael and Daudi cells (Table 2). Specific binding was measured as a function of time and antibody concentration, and the solution of the differential equation describing the net rate of formation of the antigen-antibody complex was fitted to the experimental data points using the association rate constant, kₐ, the equilibrium dissociation constant, Kd, and the mean number of binding sites, Bₘₐₓ, as parameters. Five million cells pr ml were used, four concentrations of ¹²⁵I-labeled antibody (100 ng/ml, 1000 ng/ml, 5000 ng/ml and 10000 ng/ml) and 7 incubation time points (5 min, 10 min, 20 min, 30 min, 1 h, 1.5 h and 2 h). After incubation, cells were washed twice with PBS, and then counted in a gamma counter.

Experiment [6] has as its target T1, human CD37 on living lymphoma cells …. Description: ^125I-labeled antibody on Rael cells, one-step curve fit of specific binding against time and concentration. Here is the method:
as §1

For experiment [7] the target is unchanged. In words: ^125I-labeled antibody on Daudi cells, one-step curve fit of specific binding against time and concentration. Here is the method: as §1

Chain of CD20 on living lymphoma cells (Raji, Rael, Daudi) (P11836 whole entry): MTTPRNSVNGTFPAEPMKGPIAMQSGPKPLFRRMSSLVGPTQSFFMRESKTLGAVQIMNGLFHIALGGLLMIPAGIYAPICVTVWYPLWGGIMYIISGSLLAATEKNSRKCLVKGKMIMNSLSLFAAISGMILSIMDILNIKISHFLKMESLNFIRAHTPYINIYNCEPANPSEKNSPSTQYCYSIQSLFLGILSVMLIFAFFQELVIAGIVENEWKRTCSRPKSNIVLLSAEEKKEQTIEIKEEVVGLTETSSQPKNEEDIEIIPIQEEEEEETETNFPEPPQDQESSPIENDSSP

^177Lu-rituximab (antibody) had an IRF (%) in experiment [1] of 60%.

Consider ^125I-rituximab (antibody), for which, in experiment [2], the Bmax(Ag/cell) worked out at 272000 Ag/cell and the Kd amounted to 4.8 nM. Also, the IRF (%), mean in experiment [3] worked out at 62%. In addition, in experiment [4], the Bmax(Ag/cell) is 626000 Ag/cell and the Kd was 12 nM.

In experiment [1], ^111In-rituximab (antibody) came in with an IRF (%) of 45%.

B1: ^125I-labeled HH1 (antibody, V domains shown)
VH: EIQLQQSGPELVKPGASVKVSCKASGYSFTDYNMYWVKQSHGKSLEWIGYIDPYNGDTTYNQKFKGKATLTVDKSSSTAFIHLNSLTSEDSAVYYCARSPYGHYAMDYWGQGTSVTVSS
VL: DIVMTQSHKLLSTSVGDRVSITCKASQDVSTAVDWYQQKPGQSPKLLINWASTRHTGVPDRFTGSGSGTDYTLTISSMQAEDLALYYCRQHYSTPFTFGSGTKLEIK
modifications: ^125I by indirect iodination with IODOGEN tubes; chain and residues not stated
Take B1: the figures for the Kd in experiment [5], in experiment [6] and in experiment [7] were 6.3 nM, 12.7 nM and 2.7 nM, respectively.
